From patent US20250313612A1

Columns and labels:
[1] = molecular target: RSV F protein of subtype A (strain A2) on recombinant mKate-RSV (Respiratory syncytial virus subtype A (strain A2)) (UniProt P03420); assay: cell-based or functional assay
[2] = molecular target: human metapneumovirus (HMPV) F protein on GFP-expressing hMPV (NL/1/00, A1 sublineage) (human metapneumovirus); assay: cell-based or functional assay

Sequence of RSV F protein of subtype A (strain A2) on recombinant mKate-RSV (Respiratory syncytial virus subtype A (strain A2)) (P03420 26-574): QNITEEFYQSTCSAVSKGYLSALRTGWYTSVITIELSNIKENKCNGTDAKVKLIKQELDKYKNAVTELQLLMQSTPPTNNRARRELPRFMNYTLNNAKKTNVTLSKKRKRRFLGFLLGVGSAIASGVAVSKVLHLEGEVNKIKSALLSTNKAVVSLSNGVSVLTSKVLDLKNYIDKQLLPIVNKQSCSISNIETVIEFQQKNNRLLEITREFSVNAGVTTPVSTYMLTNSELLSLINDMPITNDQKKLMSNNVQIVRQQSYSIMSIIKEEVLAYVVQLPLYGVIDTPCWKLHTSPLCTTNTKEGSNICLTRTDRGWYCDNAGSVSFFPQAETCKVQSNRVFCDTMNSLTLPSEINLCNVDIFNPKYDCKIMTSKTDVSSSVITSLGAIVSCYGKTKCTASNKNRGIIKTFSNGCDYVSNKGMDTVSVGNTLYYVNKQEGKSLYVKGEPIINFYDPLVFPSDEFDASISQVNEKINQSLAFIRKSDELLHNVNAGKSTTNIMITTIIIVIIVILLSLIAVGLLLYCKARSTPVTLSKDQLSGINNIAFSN

MPE8 (antibody)
RSV-A2 IC50 [1]: 0.04 µg/mL | HMPV-A1 IC50 [2]: 0.07 µg/mL
